Where only a bound is given, the exact number is not on record here.

The test system of experiment [1] is spleen cells derived from PVG rat and mitomycin-treated DA rat. Description: Lymphocyte mixed culture test (BrdU incorporation). In kind it is cell-based. The conditions noted are these: 4 days culture, BrdU 10 μM for last 16 hours; FIG. 2. The procedure: To study the immunosuppressive activity of the human IDO protein prepared in Example 10, a lymphocyte mixed culture test was carried out. The spleen cells derived from a non-treated PVG rat and the spleen cells derived from a DA rat treated with 25 μg/ml of mitomycin (SIGMA-Aldrich Corporation) were seeded on a U bottom 96-well plate (NUNC Inc.) at 5×10^4/well and at 8×10^6/well, respectively. The IDO protein was then added and culturing was done for 4 days. Sixteen hours before the finish of culturing 5-bromo-2′deoxyuridine (BrdU) was added at a final concentration of 10 μM. The amount of BrdU incorporated into the intracellular DNA was quantified using a BrdU Labeling & Detection Kit III (Roche Diagnostics Inc.).
For orientation: Dividing cells build labelled thymidine or BrdU into new DNA.

Experiment [2] has as its system liver graft, DA rat to LEW rat (acute rejection). Kind of experiment: Immunosuppressive activity of the IDO protein using acute rejection model (sympatric liver transplantation, DA rat to LEW rat). Format: in vivo. The conditions noted are these: for average days of take (survival): consecutive days through the tail vein after liver transplantation, N = 6. As to the method: As for the animals, male LEW and DA rats (200-350 g) were used. In the administration of the aforementioned gene therapeutic agents, immediately after Ringer's Solution (Fuso Pharmaceutical Co. Ltd.) was used in the operation and was allowed to perfuse the portal veins and the liver, the respective agents were infused from the portal veins into the liver at a speed of 5 ml/min. After allowing to stand in the culture solution for 30 minutes, the liver into which the gene had been transferred was grafted to the LEW rat.
A model similar to that in Example 2 was used to judge the therapeutic effect of the IDO protein prepared in Example 5. The IDO protein was administered consecutive days through the tail vein immediately after the liver transplantation at a dosage of 300 μg/rat.

B1: IDO protein: Recombinant murine indoleamine 2,3-dioxygenase protein prepared in Example 5 from E. coli (protein, UniProt P28776 1-407, looked up)
Indoleamine 2,3-dioxygenase 1: MALSKISPTEGSRRILEDHHIDEDVGFALPHPLVELPDAYSPWVLVARNLPVLIENGQLREEVEKLPTLSTDGLRGHRLQRLAHLALGYITMAYVWNRGDDDVRKVLPRNIAVPYCELSEKLGLPPILSYADCVLANWKKKDPNGPMTYENMDILFSFPGGDCDKGFFLVSLLVEIAASPAIKAIPTVSSAVERQDLKALEKALHDIATSLEKAKEIFKRMRDFVDPDTFFHVLRIYLSGWKCSSKLPEGLLYEGVWDTPKMFSGGSAGQSSIFQSLDVLLGIKHEAGKESPAEFLQEMREYMPPAHRNFLFFLESAPPVREFVISRHNEDLTKAYNECVNGLVSVRKFHLAIVDTYIMKPSKKKPTDGDKSEEPSNVESRGTGGTNPMTFLRSVKDTTEKALLSWP
modifications: recombinant, E. coli
Consider B1, for which the “immunosuppressive activity (amount of BrdU incorporated into intracellular DNA)” value in experiment [1] is given as “immunosuppressive effect was observed”. Besides, the “average days of take (survival)” value in experiment [2] (50 μg/rat) was 10.6 days; in experiment [2] (300 μg/rat) it was above 30 days. In addition, the “days of take of the liver graft (in words)” value in experiment [2] (300 μg/rat, tail vein, consecutive days) was “marked increase”.
